Measurements: article PMC12024540, “Peptide-Based Regulation of TNF-α-Mediated Cytotoxicity” (Biomolecules, 2025)
Where no end group is shown, it is not given here.

T1: Human TNFR2 (soluble) recombinant protein (human, UniProt P20333 33-205, fluorescent label from the Monolith Protein Labeling Kit RED-NHS 2nd Generation (labelled target in MST))
T1 construct: human TNF receptor 2, soluble recombinant form; also called TNF receptor 2; p80; source: bought: PeproTech
T1 sequence: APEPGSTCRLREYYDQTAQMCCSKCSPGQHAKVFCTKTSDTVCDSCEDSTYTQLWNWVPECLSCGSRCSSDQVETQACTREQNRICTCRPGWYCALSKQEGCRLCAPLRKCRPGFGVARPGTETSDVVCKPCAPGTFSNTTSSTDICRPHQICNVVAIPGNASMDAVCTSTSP

T2: Human TNFR1 (soluble) recombinant protein (human, UniProt P19438 42-181, fluorescent label from the Monolith Protein Labeling Kit RED-NHS 2nd Generation (labelled target in MST))
T2 construct: human TNF receptor 1, soluble recombinant form; also called TNF receptor 1; sTNFR1; source: bought: PeproTech
T2 sequence: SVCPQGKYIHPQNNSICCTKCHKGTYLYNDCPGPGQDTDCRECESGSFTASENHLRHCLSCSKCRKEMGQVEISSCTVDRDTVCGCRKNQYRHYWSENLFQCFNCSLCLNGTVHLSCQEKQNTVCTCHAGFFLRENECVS


Key:
[1] = molecular target: T1, Human TNFR2 (soluble) recombinant …; test: MST; labelled TNFR1 or TNFR2 (RED-NHS 2nd Generation) at 20 nM, peptide titrated in 16 serial dilutions, PBS, 20 min incubation in the dark, Monolith NT.115 Pico, medium MST power; details: both partners purified
[2] = molecular target: T2, Human TNFR1 (soluble) recombinant …; test: as above; details: both partners purified

| Kd [1] [µM] | Kd [2] [µM] | Binder |
| --- | --- | --- |
| 3.9 |  | NPQAEGQLQWLNRRA (15-residue stretch of human TNF predicted with Rosetta Peptiderive from the TNF-TNFR2 complex; Synthesised on Rink amide resin, so probably with a C-terminal amide (stated only for OB5); source: synthetic peptide (SPPS, Rink amide resin, HPLC purified)) [OB6 peptide] |
|  | 0.204 | NHQVEEQLEWLSQRA-NH2 (15-residue stretch of mouse TNF-α predicted with Rosetta Peptiderive from the mouse TNF-α-human TNFR1 complex; source: synthetic peptide (SPPS, Rink amide resin, HPLC purified)) [OB5 peptide] |
|  | 8.6 | VLLTHTISRIAVSYQTKVNLL (Synthesised on Rink amide resin, so probably with a C-terminal amide (stated only for OB5); 21 residues as printed; source: synthetic peptide (SPPS, Rink amide resin, HPLC purified)) [OB7 peptide] |
